Test results taken from IntAct's records for PubMed 29039417.

B1: Protein PTHB1 (Homo sapiens), Q3SYG4 (parent)
chain: MSLFKARDWWSTILGDKEEFDQGCLCLANVDNSGNGQDKIIVGSFMGYLRIFSPHPAKTGDGAQAEDLLLEVDLRDPVLQVEVGKFVSGTEMLHLAVLHSRKLCVYSVSGTLGNVEHGNQCQMKLMYEHNLQRTACNMTYGSFGGVKGRDLICIQSMDGMLMVFEQESYAFGRFLPGFLLPGPLAYSSRTDSFLTVSSCQQVESYKYQVLAFATDADKRQETEQQKLGSGKRLVVDWTLNIGEQALDICIVSFNQSASSVFVLGERNFFCLKDNGQIRFMKKLDWSPSCFLPYCSVSEGTINTLIGNHNNMLHIYQDVTLKWATQLPHIPVAVRVGCLHDLKGVIVTLSDDGHLQCSYLGTDPSLFQAPNVQSRELNYDELDVEMKELQKIIKDVNKSQGVWPMTEREDDLNVSVVVSPNFDSVSQATDVEVGTDLVPSVTVKVTLQNRVILQKAKLSVYVQPPLELTCDQFTFEFMTPDLTRTVSFSVYLKRSYTPSELEGNAVVSYSRPTDRNPDGIPRVIQCKFRLPLKLICLPGQPSKTASHKITIDTNKSPVSLLSLFPGFASQSDDDQVNVMGFHFLGGARITVLASKTSQRYRIQSEQFEDLWLITNELILRLQEYFEKQGVKDFACSFSGSIPLQEYFELIDHHFELRINGEKLEELLSERAVQFRAIQRRLLARFKDKTPAPLQHLDTLLDGTYKQVIALADAVEENQGNLFQSFTRLKSATHLVILLIALWQKLSADQVAILEAAFLPLQEDTQELGWEETVDAAISHLLKTCLSKSSKEQALNLNSQLNIPKDTSQLKKHITLLCDRLSKGGRLCLSTDAAAPQTMVMPGGCTTIPESDLEERSVEQDSTELFTNHRHLTAETPRPEVSPLQGVSE
partner: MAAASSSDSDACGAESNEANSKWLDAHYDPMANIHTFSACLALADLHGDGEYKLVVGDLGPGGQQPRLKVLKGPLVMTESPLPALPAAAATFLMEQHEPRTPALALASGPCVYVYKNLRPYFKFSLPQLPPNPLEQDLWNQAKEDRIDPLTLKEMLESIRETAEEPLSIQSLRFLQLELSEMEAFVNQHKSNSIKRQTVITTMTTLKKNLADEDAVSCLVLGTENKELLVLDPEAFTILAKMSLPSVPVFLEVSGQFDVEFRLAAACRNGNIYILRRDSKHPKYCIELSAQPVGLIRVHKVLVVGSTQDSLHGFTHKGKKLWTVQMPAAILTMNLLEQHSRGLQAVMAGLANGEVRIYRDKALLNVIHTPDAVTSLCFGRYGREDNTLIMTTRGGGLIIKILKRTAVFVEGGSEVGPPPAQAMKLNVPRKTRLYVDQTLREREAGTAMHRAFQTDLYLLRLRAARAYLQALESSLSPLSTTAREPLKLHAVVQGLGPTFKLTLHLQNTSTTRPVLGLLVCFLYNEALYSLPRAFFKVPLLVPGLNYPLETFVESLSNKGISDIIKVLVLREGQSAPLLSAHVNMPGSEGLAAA

Variants of: B1
Details: with bbs1_human BBS1, Q8NFJ9

Row | Variant | effect of a mutation on the interaction
1 | S637K | with no effect
2 | D711A | with no effect
3 | N576A | with no effect
4 | D804F | disrupting interaction strength
5 | E857A | with no effect
6 | D551K | with no effect
7 | R483A | with no effect
8 | D773K | with no effect
9 | D517K | with no effect
10 | T478E | with no effect
11 | L808K | with no effect
12 | V432E | disrupting interaction strength
13 | V432A | with no effect
14 | L611K | with no effect
15 | L611E | with no effect
16 | A831E | with no effect
17 | F580K | with no effect
18 | F580E | with no effect
19 | Q426A | with no effect
20 | T595A | with no effect
21 | R674A | with no effect
22 | N796A | with no effect
23 | L882E | with no effect
24 | L882K | with no effect
25 | P877E | with no effect
26 | Q883K | with no effect

Row | Variant | effect of a mutation on the interaction
27 | Q453K | with no effect
28 | C783A | with no effect
29 | C783K | with no effect
30 | E406K | with no effect
31 | I534K | with no effect
32 | L618E | with no effect
33 | R876K | with no effect
34 | Y490A | with no effect
35 | L827E | with no effect
36 | Q524A | with no effect
37 | Q524K | with no effect
38 | T688A | with no effect
39 | F476K | with no effect
40 | A774K | with no effect
41 | A746K | with no effect
42 | I519E | with no effect
43 | N503A | with no effect
44 | N503E | with no effect
45 | P691A | with no effect
46 | T771K | with no effect
47 | L870K | with no effect
48 | L491A | with no effect
49 | T874K | with no effect
50 | F632E | with no effect
51 | T484A | with no effect
52 | T484E | with no effect

Row | Variant | effect of a mutation on the interaction
53 | T484K | with no effect
54 | I523K | with no effect
55 | P530A | with no effect
56 | L562K | with no effect
57 | C469A | with no effect
58 | C816K | with no effect
59 | S570K | with no effect
60 | R824A | with no effect
61 | A633K | with no effect
62 | T405E | with no effect
63 | D410A | with no effect
64 | V437A | with no effect
65 | L560K | with no effect
66 | V557K | with no effect
67 | R656A | with no effect
68 | L446A | with no effect
69 | K532E | with no effect
70 | S596K | with no effect
71 | Y495A | with no effect
72 | Y495E | with no effect
73 | E604K | with no effect
74 | E604A | with no effect
75 | T702K | with no effect
76 | D747N | disrupting interaction strength
77 | T482P | disrupting interaction strength
78 | T482K | with no effect

Row | Variant | effect of a mutation on the interaction
79 | S797E | with no effect
80 | P802T | disrupting interaction strength
81 | D700E | with no effect
82 | D700A | with no effect
83 | C826E | with no effect
84 | Q717A | with no effect
85 | F684E | with no effect
86 | Q748A | with no effect
87 | L698A | with no effect
88 | S509E | with no effect
89 | V430E | with no effect
90 | I588K | with no effect
91 | S880A | with no effect
92 | V577K | with no effect
93 | Q693K | with no effect
94 | D762E | with no effect
95 | T844K | with no effect
96 | L583K | with no effect
97 | R669E | with no effect
98 | R669K | with no effect
99 | G628K | with no effect
100 | S745E | with no effect
101 | I801K | with no effect
102 | I801A | with no effect
103 | C634E | with no effect
104 | L863E | with no effect

Row | Variant | effect of a mutation on the interaction
105 | L863A | with no effect
106 | L642K | with no effect
107 | S507F | disrupting interaction strength
108 | R510E | with no effect
109 | N716K | with no effect
110 | F673K | with no effect
111 | E408K | with no effect
112 | S423K | with no effect
113 | H811A | with no effect
114 | F566K | with no effect
115 | C535K | with no effect
116 | Q760A | with no effect
117 | D830K | with no effect
118 | T865A | with no effect
119 | L481E | with no effect
120 | T871E | with no effect
121 | F527A | with no effect
122 | L616K | with no effect
123 | S729K | with no effect
124 | L665K | with no effect
125 | I846E | with no effect
126 | Q605K | with no effect
127 | S418K | with no effect
128 | R587T | disrupting interaction strength
129 | R587A | with no effect
130 | G822A | with no effect

Row | Variant | effect of a mutation on the interaction
131 | D850A | with no effect
132 | D696E | with no effect
133 | V706E | with no effect
134 | Y460K | with no effect
135 | D572K | with no effect
136 | G518E | with no effect
137 | S555K | with no effect
138 | V442K | with no effect
139 | R726A | with no effect
140 | V629K | with no effect
141 | H581A | with no effect
142 | Q602K | with no effect
143 | K803E | with no effect
144 | Q742K | with no effect
145 | S486A | with no effect
146 | Q858K | with no effect
147 | L465E | with no effect
148 | E654A | with no effect
149 | L720K | with no effect
150 | L529A | with no effect
151 | L695A | with no effect
152 | T549A | with no effect
153 | T549K | with no effect
154 | S541K | with no effect
155 | S414K | with no effect
156 | S414E | with no effect

Row | Variant | effect of a mutation on the interaction
157 | R818A | with no effect
158 | Y703E | with no effect
159 | V838A | with no effect
160 | K786E | with no effect
161 | I649E | with no effect
162 | I649A | with no effect
163 | I657A | with no effect
164 | R521K | with no effect
165 | N866K | with no effect
166 | S568E | with no effect
167 | R679W | disrupting interaction strength
168 | L736E | with no effect
169 | L736A | with no effect
170 | G585R | disrupting interaction strength
171 | G585K | with no effect
172 | V749A | with no effect
173 | V749E | disrupting interaction strength
174 | L533E | with no effect
175 | E431A | with no effect
176 | A690K | disrupting interaction strength
177 | L662K | with no effect
178 | V575A | with no effect
179 | T512A | with no effect
180 | S558A | with no effect

Variants of: B1
Details: with bbs1_human BBS1, Q8NFJ9
Remark: another data set of the same source

Row | Variant | effect of a mutation on the interaction
181 | S745E | disrupting interaction strength
182 | A690K | with no effect
